In patent US6593098 (FOX CHASE CANCER CENTER, dated 2003):

B1: CENP-F (other, UniProt P49454 2542-3114, looked up)
chain: SQVEGEHQLWKEQNLELRNLTVELEQKIQVLQSKNASLQDTLEVLQSSYKNLENELELTKMDKMSFVEKVNKMTAKETELQREMHEMAQKTAELQEELSGEKNRLAGELQLLLEEIKSSKDQLKELTLENSELKKSLDCMHKDQVEKEGKVREEIAEYQLRLHEAEKKHQALLLDTNKQYEVEIQTYREKLTSKEECLSSQKLEIDLLKSSKEELNNSLKATTQILEELKKTKMDNLKYVNQLKKENERAQGKMKLLIKSCKQLEEEKEILQKELSQLQAAQEKQKTGTVMDTKVDELTTEIKELKETLEEKTKEADEYLDKYCSLLISHEKLEKAKEMLETQVAHLCSQQSKQDSRGSPLLGPVVPGPSPIPSVTEKRLSSGQNKASGKRQRSSGIWENGRGPTPATPESFSKKSKKAVMSGIHPAEDTEGTEFEPEGLPEVVKKGFADIPTGKTSPYILRRTTMATRTSPRLAAQKLALSPLSLGKENLAESSKPTAGGSRSQKVKVAQRSPVDSGTILREPTTKSVPVNNLPERSPTDSPREGLRVKRGRLVPSPKAGLESNGSENCKVQ
B2: human BUB1B kinase (enzyme)
chain: MDTPENVLQMLEAHMQSYKGNDPLGEWERYIQWVEENFPENKEYLITLLEHLMKEFLDKKKYHNDPRFISYCLKFAEYNSDLHQFFEFLYNHGIGTLSSPLYIAWAGHLEAQGELQHASAVLQRGIQNQAEPREFLQQQYRLFQTRLTETHLPAQARTSEPLHNVQVLNQMITSKSNPGNNMACISKNQGSELSGVISSACDKESNMERRVITISKSEYSVHSSLASKVDVEQVVMYCKEKLIRGESEFSFEELRAQKYNQRRKHEQWVNEDRHYMKRKEANAFEEQLLKQKMDELHKKLHQVVETSHEDLPASQERSEVNPARMGPSVGSQQELRAPCLPVTYQQTPVNMEKNPREAPPVVPPLANAISAALVSPATSQSIAPPVPLKAQTVTDSMFAVASKDAGCVNKSTHEFKPQSGAEIKEGCETHKVANTSSFHTTPNTSLGMVQATPSKVQPSPTVHTKEALGFIMNMFQAPTLPDISDDKDEWQSLDQNEDAFEAQFQKNVRSSGAWGVNKIISSLSSAFHVFEDGNKENYGLPQPKNKPTGARTFGERSVSRLPSKPKEEVPHAEEFLDDSTVWGIRCNKTLAPSPKSPGDFTSAAQLASTPFHKLPVESVHILEDKENVVAKQCTQATLDSCEENMVVPSRDGKFSPIQEKSPKQALSSHMYSASLLRLSQPAAGGVLTCEAELGVEACRLTDTDAAIAEDPPGSAAIAEDPPDAIAGLQAEWMQMSSLGTVDAPNFIVGNPWDDKLIFKLLSGLSKPVSSYPNTFEWQCKLPAIKPKTEFQLGSKLVYVHHLLGEGAFAQVYEATQGDLNDAKNKQKFVLKVQKPANPWEFYIGTQLMERLKPSMQHMFMKFYSAHLFQNGSVLVGELYSYGTLLNAINLYKNTPEKVMPQGLVISFAMRMLYMIEQVHDCEIIHGDIKPDNFILGNGFLEQDDEDDLSAGLALIDLGQSIDMKLFPKGTIFTAKCETSGFQCVEMLSNKPWNYQIDYFGVAATVYCMLFGTYMKVKNEGGECKPEGLFRRLPHLDMWNEFFHVMLNIPDCHHLPSLDLLRQKLKKVFQQHYTNKIRALRNRLIVLLLECKRSRK
notes: Endogenous protein in the immunoprecipitations; also called huBUB1B

Assays:
human BUB1A kinase = target: T1, human BUB1A kinase (human, UniProt O60566 1-1050, hyperphosphorylated in mitotically arrested cells (P-ser and P-thr the major phosphoamino acids; positions not given)); experiment: specificity test, method not named in the sentence (probably yeast two-hybrid)
T1 construct: Endogenous huBUB1A immunoprecipitated or blotted from Hela lysates; also called huBUB1A; hUBUB1A
T1 sequence (O60566 whole entry R349Q/E1018K): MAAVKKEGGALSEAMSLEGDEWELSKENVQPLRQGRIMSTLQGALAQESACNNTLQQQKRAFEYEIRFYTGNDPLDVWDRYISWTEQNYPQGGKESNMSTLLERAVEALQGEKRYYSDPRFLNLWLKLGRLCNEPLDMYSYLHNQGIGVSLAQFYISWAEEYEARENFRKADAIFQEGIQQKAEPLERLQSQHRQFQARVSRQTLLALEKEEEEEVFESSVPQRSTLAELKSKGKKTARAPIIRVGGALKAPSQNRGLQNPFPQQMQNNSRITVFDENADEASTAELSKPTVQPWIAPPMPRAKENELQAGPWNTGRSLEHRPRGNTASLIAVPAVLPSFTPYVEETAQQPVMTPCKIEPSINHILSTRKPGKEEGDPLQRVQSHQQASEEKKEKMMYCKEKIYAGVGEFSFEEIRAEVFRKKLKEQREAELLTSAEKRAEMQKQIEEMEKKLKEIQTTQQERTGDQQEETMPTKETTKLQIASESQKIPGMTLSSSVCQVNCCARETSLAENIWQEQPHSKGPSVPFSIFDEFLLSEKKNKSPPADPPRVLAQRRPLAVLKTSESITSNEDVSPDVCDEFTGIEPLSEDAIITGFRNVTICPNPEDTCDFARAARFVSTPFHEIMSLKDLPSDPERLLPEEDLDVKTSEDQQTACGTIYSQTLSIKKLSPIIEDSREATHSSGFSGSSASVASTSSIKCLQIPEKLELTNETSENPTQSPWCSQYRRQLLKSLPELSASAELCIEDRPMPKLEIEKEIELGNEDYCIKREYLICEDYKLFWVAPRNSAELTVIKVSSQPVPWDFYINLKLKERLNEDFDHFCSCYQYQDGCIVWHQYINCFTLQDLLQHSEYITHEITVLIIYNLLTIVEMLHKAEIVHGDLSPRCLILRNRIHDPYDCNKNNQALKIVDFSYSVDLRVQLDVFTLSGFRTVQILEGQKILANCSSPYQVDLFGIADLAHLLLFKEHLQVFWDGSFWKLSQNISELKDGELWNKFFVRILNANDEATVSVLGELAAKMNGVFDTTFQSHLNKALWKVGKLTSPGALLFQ

CENP-E = target: T2, CENP-E (human, UniProt Q02224 1-2698, limits assumed); experiment: as above
T2 construct: Endogenous Hela protein in the immunoprecipitations; also called CENP-E kinetochore motor; endogenous CENP-E
T2 sequence (Q02224 1-2698 limits assumed): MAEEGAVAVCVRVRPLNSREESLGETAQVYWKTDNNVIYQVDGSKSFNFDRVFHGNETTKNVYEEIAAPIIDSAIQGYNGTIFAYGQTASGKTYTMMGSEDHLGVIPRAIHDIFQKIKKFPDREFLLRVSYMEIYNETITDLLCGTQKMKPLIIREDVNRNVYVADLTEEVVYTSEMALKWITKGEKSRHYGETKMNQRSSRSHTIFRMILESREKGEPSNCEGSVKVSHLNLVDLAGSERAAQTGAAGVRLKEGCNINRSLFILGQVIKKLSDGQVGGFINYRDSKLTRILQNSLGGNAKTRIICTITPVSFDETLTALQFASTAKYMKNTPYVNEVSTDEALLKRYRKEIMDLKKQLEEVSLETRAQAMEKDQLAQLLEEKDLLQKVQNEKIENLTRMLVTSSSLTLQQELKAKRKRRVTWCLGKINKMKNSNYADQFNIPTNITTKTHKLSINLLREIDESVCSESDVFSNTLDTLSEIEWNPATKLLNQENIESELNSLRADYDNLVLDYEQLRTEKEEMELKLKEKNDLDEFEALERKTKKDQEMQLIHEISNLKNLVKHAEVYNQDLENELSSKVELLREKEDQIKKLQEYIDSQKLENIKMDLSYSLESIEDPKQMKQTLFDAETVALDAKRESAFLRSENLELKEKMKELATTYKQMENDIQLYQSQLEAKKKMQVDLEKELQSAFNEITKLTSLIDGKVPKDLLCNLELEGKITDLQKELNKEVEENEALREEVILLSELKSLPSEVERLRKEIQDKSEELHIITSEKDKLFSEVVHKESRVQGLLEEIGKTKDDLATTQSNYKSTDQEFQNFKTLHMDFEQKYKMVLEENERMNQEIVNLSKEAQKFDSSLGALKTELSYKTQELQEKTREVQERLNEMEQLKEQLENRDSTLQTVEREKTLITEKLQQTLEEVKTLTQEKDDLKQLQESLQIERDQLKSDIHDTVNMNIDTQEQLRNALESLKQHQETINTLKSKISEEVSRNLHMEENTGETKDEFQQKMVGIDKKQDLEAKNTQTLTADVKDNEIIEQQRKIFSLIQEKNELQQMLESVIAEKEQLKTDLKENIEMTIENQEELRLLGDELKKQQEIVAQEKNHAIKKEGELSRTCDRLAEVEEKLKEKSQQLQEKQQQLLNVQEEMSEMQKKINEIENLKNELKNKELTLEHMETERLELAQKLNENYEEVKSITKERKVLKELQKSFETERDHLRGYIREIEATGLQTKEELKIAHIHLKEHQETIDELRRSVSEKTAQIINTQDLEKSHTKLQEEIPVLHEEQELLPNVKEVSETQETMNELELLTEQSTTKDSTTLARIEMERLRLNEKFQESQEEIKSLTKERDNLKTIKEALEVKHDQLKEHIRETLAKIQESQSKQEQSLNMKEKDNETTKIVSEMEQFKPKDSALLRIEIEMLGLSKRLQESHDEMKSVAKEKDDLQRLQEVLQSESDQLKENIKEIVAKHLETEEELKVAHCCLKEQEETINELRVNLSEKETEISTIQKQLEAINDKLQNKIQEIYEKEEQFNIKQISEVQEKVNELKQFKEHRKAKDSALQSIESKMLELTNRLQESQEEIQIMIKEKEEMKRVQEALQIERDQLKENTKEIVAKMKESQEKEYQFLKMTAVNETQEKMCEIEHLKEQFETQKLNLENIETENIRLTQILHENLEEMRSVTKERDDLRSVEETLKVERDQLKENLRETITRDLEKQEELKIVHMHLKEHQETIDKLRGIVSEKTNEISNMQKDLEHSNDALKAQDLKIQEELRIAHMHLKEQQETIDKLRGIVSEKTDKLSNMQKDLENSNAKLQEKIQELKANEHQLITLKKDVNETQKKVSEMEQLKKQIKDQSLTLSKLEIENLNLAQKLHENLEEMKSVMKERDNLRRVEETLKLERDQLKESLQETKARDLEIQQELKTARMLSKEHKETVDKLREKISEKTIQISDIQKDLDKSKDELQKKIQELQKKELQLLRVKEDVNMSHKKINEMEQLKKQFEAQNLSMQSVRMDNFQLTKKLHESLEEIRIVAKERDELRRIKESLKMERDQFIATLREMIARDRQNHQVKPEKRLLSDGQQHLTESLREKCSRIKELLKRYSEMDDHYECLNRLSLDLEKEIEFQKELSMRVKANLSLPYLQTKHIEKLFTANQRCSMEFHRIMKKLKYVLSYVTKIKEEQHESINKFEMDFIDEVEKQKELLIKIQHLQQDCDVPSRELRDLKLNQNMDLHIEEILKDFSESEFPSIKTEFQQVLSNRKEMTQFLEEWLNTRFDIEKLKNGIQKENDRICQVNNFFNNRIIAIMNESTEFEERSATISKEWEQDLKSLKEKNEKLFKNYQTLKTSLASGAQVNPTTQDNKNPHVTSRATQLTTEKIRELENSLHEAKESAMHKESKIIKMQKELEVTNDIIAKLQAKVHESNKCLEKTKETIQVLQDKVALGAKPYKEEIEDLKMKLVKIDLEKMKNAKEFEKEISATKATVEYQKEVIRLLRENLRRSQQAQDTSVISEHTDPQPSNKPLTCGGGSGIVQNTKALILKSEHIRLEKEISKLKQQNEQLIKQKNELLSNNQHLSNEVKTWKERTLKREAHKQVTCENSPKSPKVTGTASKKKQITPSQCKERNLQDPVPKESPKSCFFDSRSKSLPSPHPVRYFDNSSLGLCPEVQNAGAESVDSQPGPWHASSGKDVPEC

| Binder | binding result (human BUB1A kinase) | binding result (CENP-E) |
| --- | --- | --- |
| B1 | no binding | – |
| B2 | – | no binding |
